Measurements reported in article PMC12463132 (Advanced Science, 2025).
Ends that are not written are not given here.

Target: T1, Sec23a/Sec24a (lacking residues 1–340) (human, UniProt Q15436 1-765; O95486 341-1093)
T1 construct: Sec23a, human, full length (pFastBac1 vector); Sec24a, human, lacking residues 1-340; The results call the protein of the pull-downs 'Sec24a' or 'Sec24', the methods 'COPII protein'; also called COPII coat proteins Sec23a/Sec24a; COPII protein; source: Hi5 insect cells (baculovirus made in Sf9), purified (HisTrap, ion exchange, SEC)
T1 sequence (Q15436 whole entry, chain 1 of 2, the tested form may be a part): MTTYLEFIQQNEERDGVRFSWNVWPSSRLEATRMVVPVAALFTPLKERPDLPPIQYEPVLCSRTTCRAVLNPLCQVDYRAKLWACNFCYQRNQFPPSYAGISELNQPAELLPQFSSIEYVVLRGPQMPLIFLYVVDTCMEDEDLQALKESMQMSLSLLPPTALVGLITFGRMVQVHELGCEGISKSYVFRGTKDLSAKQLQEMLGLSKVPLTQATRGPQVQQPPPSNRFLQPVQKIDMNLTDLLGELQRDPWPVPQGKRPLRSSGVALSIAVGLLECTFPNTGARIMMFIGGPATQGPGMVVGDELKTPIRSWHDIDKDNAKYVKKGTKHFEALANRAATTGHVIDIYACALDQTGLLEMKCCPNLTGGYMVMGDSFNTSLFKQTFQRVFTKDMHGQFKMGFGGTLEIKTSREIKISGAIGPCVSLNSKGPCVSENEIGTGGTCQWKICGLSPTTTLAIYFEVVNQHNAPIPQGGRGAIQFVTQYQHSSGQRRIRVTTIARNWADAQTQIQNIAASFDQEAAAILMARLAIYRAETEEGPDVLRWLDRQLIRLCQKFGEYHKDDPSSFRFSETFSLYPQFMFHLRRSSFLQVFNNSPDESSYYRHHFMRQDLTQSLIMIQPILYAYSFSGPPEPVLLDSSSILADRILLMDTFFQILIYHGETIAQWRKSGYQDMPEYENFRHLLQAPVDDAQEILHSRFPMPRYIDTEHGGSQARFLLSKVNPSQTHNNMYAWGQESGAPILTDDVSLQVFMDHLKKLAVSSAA
T1 sequence (O95486 341-1093, chain 2 of 2): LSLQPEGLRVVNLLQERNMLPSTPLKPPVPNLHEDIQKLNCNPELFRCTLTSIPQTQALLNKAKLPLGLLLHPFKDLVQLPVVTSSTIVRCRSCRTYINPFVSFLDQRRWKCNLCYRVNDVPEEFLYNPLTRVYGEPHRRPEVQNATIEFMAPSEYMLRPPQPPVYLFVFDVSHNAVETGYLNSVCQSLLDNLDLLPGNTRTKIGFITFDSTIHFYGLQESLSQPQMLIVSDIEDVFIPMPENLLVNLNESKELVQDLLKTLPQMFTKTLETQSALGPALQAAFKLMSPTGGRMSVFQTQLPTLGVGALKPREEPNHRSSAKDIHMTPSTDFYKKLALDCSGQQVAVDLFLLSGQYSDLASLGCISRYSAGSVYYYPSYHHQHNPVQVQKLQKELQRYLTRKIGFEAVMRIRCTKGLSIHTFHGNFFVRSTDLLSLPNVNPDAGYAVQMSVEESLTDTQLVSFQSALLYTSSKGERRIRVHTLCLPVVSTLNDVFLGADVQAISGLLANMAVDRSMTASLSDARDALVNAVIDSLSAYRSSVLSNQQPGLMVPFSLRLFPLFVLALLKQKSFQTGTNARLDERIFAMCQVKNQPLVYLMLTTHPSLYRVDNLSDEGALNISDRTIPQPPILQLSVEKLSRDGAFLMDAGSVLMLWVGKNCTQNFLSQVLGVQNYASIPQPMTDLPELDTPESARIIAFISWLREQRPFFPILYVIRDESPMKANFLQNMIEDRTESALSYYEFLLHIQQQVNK
Assay: pull-down; competition: phosphorylated GST-STING CTT on glutathione Sepharose 4B beads, IRF3 with Sec24; 20 mM HEPES-Na pH 7.4, 200 mM NaCl, 4 mM DTT, 0.1% Triton X-100, 4 °C; SDS-PAGE
Details: both partners purified

binding result: binds
B1: GST‐tagged human STING CTT (residue number: 335–379), phosphorylated (domain or fragment, UniProt Q86WV6 335-379, looked up)
chain: QEEKEEVTVGSLKTSAVPSTSTMSQEPELLISGMEKPLPLRTDFS
modifications: also: GST-tagged, phosphorylated by TBK1, sites not given here
notes: STING, human, C-terminal tail, residues 335-379; also called phosphorylated STING CTT; phosphorylated GST‐STING protein; source: phosphorylated in vitro by GST-tagged human TBK1, used directly; not shown: GST, N-terminal, kept
